Assay results reported in publication PMC6141617 (Nature Communications, 2018).

T1: 14-3-3β (purified alone) (human, UniProt P31946 1-239)
T1 construct: also called YWHAB (pTvHR21-SGC)
T1 sequence: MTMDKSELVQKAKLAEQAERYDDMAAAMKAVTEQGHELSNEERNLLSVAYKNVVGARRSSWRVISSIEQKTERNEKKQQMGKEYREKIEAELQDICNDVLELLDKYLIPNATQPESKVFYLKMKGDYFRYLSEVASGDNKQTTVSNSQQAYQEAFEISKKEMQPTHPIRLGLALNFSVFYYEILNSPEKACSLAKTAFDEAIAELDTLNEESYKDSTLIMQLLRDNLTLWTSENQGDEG

B1: GFP-ExoS^233-453 (domain or fragment)
chain: ADKALADGLVKRFGADAEKYLGRQPGGIHSDAEVMALGLYTGIHYADLNRALRQGQELDAGQKLIDQGMSAAFEKSGQAEQVVKTFRGTRGGDAFNAVEEGKVGHDDGYLSTSLNPGVARSFGQGTISTVFGRSGIDVSGISNYKNEKEILYNKETDMRVLLSASDEQGVTRRVLEEAALGEQSGHSQGLLDALDLASKPERSGEVQEQDVRLRMRGLDLA
B2: 14-3-3β truncated after N234 (untagged, re-designed co-expression construct) (domain or fragment, human, UniProt P31946 1-234, looked up)
chain: MTMDKSELVQKAKLAEQAERYDDMAAAMKAVTEQGHELSNEERNLLSVAYKNVVGARRSSWRVISSIEQKTERNEKKQQMGKEYREKIEAELQDICNDVLELLDKYLIPNATQPESKVFYLKMKGDYFRYLSEVASGDNKQTTVSNSQQAYQEAFEISKKEMQPTHPIRLGLALNFSVFYYEILNSPEKACSLAKTAFDEAIAELDTLNEESYKDSTLIMQLLRDNLTLWTSEN
B3: 14-3-3β^1–239 (untagged, first co-expression construct) (natural protein)
chain: T1 sequence
B4: GFP-ExoS^233-435 (domain or fragment)
chain: ADKALADGLVKRFGADAEKYLGRQPGGIHSDAEVMALGLYTGIHYADLNRALRQGQELDAGQKLIDQGMSAAFEKSGQAEQVVKTFRGTRGGDAFNAVEEGKVGHDDGYLSTSLNPGVARSFGQGTISTVFGRSGIDVSGISNYKNEKEILYNKETDMRVLLSASDEQGVTRRVLEEAALGEQSGHSQGLLDALDLASKPERS

Tests used:
14-3-3β (purified alone) = biological target: T1, 14-3-3β (purified alone); assay: fluorescence polarisation; conditions: both partners purified
crystal structure = biological target: the molecule itself; assay: crystal structure

Binder	Kd (14-3-3β (purified alone)) [nM]	stoichiometry N (crystal structure)
B1	~40	–
B2	–	2
B3	–	2
B4	~70	–
